In publication PMC12915166 (2025) one finds binding result and EC50 of peptide data, which are given here for three molecules.

Assay [1] deals with T1, HA-1 (HA-1H allele), encoded by ARHGAP45 peptide on HLA-A*02:06 (human).
T1 peptide: VLHDDLLEA
Nature of the assay: activation reporter or marker.

The target in assay [2] is T2, HA-2 (HA-2V allele), encoded by MYO1G peptide on HLA-A*02:01 (human).
T2 peptide: YIGEVLVSV

B1: anti-HA-1H TCR clone 7 (TCR)
alpha TRAV3 TRAJ40 CDR3: AVRAPTSGTYKYI
beta TRBV7-9 TRBJ2-1 CDR3: ASSLVSGNEQF
On to B1, for which the binding result in assay [1] is listed as “recognises”.

B2: anti-HA-2V TCR clone 7 (TCR)
alpha TRAV21 TRAJ42 CDR3: AVRSGYGGSQGNL
beta TRBV7-8 TRBJ2-5 CDR3: ASSLAGGSLQETQY
In assay [2], B2 gave an EC50 of peptide of 0.7 nM.

B3: anti-HA-2V TCR clone 6 (TCR)
alpha TRAV38-2DV8 TRAJ34 CDR3: AYRRFYNTDKLI
beta TRBV19 TRBJ1-1 CDR3: ASRSAGYAEAF
In assay [2], B3 had an EC50 of peptide of 21 nM.
